For the assay, the target named is ALK1 / BMPRII receptor pair (BMPR Type I receptor ALK1 and BMPR Type II receptor BMPRII) on cells (UniProt P37023). Kind of assay: cell-based or functional assay.
Sequence of ALK1 / BMPRII receptor pair (BMPR Type I receptor ALK1 and BMPR Type II receptor BMPRII) on cells (P37023 22-503 limits assumed, chain 1 of 2): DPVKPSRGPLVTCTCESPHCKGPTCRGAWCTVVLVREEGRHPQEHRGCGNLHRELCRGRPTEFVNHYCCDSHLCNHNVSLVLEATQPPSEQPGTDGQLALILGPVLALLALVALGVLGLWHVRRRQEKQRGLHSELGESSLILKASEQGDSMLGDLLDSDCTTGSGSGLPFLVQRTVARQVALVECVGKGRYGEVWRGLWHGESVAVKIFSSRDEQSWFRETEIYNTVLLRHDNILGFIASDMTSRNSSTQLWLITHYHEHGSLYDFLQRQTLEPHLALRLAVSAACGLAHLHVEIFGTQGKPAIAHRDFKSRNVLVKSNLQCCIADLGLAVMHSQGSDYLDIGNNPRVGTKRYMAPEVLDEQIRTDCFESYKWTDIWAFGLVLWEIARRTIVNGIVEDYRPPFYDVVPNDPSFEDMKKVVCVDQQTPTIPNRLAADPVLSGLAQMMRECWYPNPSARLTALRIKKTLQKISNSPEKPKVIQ
Sequence of ALK1 / BMPRII receptor pair (BMPR Type I receptor ALK1 and BMPR Type II receptor BMPRII) on cells (Q13873 27-1038 limits assumed, chain 2 of 2, further chain): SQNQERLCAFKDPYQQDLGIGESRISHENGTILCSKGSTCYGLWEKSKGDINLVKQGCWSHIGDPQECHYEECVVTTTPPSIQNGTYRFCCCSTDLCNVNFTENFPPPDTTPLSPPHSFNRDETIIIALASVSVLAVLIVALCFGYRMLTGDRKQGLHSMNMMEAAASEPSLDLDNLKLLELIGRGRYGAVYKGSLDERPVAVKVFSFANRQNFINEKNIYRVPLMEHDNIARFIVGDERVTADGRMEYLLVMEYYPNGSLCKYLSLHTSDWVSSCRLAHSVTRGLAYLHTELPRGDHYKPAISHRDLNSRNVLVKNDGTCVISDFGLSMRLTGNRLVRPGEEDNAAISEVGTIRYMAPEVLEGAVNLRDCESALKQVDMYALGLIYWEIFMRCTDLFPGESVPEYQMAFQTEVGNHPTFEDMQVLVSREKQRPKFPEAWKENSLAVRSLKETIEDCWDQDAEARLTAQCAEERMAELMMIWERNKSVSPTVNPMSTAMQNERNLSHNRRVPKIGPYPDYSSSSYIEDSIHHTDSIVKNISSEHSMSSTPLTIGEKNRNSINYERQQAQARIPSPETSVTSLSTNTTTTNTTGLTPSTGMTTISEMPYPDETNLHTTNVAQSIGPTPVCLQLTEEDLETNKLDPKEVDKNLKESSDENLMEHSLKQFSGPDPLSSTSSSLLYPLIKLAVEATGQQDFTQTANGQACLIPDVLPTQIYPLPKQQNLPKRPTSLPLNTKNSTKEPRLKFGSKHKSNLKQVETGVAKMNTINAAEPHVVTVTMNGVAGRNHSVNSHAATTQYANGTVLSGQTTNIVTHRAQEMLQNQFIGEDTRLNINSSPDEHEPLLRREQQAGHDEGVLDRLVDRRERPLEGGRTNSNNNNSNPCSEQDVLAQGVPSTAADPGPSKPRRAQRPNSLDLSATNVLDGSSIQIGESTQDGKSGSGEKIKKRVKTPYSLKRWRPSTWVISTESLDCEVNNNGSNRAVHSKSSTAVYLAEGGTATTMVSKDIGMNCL

B1: BMP9 (ligand, UniProt Q9UK05 320-429, looked up)
chain: SAGAGSHCQKTSLRVNFEDIGWDSWIIAPKEYEAYECKGGCFFPLADDVTPTKHAIVQTLVHLKFPTKVGKACCVPTKLSPISVLYKDDMGVPTLKYHYEGMSVAECGCR
B1: the Agonist activity, % Emax BMP9 was determined as 100 % Emax BMP9; the Agonist activity, EC50 came out at 0.02 nM; the Agonist activity, EMAX (RLU) is 2.64e+06 RLU; the pSMAD1 ELISA in HUVEC, RLU 15 minutes, at 0 nM (baseline) was 4.9 RLU. For the same molecule, the pSMAD1 ELISA in HUVEC, RLU 15 minutes, at 0.04 nM is 101 RLU; the pSMAD1 ELISA in HUVEC, RLU 15 minutes, at 0.2 nM stood at 102 RLU; the pSMAD1 ELISA in HUVEC, RLU 15 minutes, at 1 nM came out at 106 RLU; the pSMAD1 ELISA in HUVEC, RLU 60 minutes, at 0 nM (baseline) is 6.1 RLU. The pSMAD1 ELISA in HUVEC, RLU 60 minutes, at 0.04 nM worked out at 81.8 RLU; the pSMAD1 ELISA in HUVEC, RLU 60 minutes, at 0.2 nM is 83.2 RLU; the pSMAD1 ELISA in HUVEC, RLU 60 minutes, at 1 nM was 81.8 RLU.

B2: BMP10 (ligand, UniProt O95393 317-424, looked up)
chain: NAKGNYCKRTPLYIDFKEIGWDSWIIAPPGYEAYECRGVCNYPLAEHLTPTKHAIIQALVHLKNSQKASKACCVPTKLEPISILYLDKGVVTYKFKYEGMAVSECGCR
Molecule B2 displayed an Agonist activity, % Emax BMP9 of 97 % Emax BMP9; an Agonist activity, EC50 of 0.1 nM; an Agonist activity, EMAX (RLU) of 2.57e+06 RLU.

For the origin of these results see US20240383990A1.
